Experiments:
c-Src SH2 = test: SH2 binding enrichment of the phosphorylated peptide, bacterial display (enrichment ratio); higher = better substrate or ligand; peptides without Tyr show the background
Grb2 SH2 = Grb2 SH2 (UniProt P62993); test: as above
SHP2-C SH2 = test: as above
EPHB1 = EPHB1 (UniProt P54762); test: phosphorylation enrichment, bacterial display (enrichment ratio); higher = better substrate or ligand; peptides without Tyr show the background
Fyn = Fyn (UniProt P06241); test: as above
Fyn, sequence (P06241 whole entry, looked up): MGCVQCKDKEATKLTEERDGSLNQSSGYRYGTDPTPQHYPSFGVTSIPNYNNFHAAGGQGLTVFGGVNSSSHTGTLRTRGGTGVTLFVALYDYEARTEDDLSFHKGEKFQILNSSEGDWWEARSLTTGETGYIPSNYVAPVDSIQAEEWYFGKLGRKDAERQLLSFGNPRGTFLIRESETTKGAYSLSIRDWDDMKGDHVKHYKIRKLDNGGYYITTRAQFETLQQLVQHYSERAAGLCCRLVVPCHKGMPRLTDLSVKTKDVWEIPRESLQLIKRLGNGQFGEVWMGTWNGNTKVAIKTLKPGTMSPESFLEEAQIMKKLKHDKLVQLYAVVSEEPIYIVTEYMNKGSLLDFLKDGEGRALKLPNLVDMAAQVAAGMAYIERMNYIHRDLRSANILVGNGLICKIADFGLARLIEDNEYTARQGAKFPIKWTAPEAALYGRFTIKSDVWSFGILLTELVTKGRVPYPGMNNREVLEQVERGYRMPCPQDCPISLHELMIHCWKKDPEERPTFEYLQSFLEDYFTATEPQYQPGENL

FGFR1 = FGFR1 (UniProt P11362); test: as above
FGFR1, sequence (P11362 whole entry, looked up): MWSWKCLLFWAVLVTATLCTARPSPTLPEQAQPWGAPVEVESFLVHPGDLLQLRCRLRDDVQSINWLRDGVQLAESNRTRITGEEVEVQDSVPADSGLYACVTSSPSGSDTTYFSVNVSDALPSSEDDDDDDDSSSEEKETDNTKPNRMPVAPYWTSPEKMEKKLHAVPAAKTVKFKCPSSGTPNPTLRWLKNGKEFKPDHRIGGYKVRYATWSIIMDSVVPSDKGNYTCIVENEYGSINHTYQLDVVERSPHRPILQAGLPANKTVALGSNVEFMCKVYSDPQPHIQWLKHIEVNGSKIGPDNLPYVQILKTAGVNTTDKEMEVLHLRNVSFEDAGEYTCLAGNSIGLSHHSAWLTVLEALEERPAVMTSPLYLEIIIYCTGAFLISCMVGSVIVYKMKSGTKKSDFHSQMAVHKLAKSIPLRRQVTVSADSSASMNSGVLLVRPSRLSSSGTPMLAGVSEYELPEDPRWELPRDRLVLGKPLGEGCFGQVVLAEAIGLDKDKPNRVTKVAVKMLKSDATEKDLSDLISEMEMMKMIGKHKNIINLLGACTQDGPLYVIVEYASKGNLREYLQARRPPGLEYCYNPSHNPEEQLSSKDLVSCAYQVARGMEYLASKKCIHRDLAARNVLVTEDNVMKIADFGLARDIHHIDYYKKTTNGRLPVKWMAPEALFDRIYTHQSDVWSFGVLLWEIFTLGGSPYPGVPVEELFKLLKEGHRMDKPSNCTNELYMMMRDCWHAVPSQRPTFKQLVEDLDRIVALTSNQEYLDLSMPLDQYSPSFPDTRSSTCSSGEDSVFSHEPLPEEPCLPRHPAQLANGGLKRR

AncSZ = test: as above
c-Src = test: as above
Jak2 = Jak2 (UniProt O60674); test: as above
Hck = Hck (UniProt P08631); test: as above
Hck, sequence (P08631 whole entry, looked up): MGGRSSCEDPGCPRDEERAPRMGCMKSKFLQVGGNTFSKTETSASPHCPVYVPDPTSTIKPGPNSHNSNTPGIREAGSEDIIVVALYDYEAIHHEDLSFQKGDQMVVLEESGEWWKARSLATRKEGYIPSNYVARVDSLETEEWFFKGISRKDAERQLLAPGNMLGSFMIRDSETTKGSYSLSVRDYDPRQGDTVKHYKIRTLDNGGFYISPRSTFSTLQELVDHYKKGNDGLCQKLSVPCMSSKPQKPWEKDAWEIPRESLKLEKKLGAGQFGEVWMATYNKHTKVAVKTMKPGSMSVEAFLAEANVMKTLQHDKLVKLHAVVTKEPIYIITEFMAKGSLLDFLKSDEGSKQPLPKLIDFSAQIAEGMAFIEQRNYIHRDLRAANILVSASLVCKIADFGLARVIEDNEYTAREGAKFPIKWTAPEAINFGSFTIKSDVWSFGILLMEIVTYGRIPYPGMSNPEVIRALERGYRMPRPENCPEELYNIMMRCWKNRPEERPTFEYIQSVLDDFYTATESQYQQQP

EPHB2 = EPHB2 (UniProt P29323); test: as above
Fes = Fes (UniProt P07332); test: as above
Fes, sequence (P07332 whole entry, looked up): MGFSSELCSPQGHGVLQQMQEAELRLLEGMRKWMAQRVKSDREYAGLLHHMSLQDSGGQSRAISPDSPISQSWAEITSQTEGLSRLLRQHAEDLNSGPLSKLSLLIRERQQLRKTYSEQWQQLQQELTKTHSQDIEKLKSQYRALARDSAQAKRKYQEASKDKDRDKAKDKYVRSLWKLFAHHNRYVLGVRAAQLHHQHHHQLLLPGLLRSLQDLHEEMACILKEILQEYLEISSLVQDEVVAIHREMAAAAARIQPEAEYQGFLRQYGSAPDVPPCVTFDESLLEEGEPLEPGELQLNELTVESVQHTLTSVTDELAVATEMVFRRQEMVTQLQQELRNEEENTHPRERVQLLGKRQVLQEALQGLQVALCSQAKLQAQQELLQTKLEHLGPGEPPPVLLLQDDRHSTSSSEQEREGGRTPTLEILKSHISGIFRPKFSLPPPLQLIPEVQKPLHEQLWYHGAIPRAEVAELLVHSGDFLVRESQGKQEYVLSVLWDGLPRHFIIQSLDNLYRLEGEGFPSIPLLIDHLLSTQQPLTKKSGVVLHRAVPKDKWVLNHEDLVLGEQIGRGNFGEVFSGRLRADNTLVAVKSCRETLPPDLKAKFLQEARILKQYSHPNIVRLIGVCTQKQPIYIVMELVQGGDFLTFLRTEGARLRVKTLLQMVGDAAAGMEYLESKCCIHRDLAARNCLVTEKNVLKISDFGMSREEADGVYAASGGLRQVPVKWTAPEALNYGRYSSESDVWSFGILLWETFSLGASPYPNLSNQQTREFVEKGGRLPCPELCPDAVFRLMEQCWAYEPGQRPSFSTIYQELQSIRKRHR

MERTK = MERTK (UniProt Q12866); test: as above
MERTK, sequence (Q12866 whole entry, looked up): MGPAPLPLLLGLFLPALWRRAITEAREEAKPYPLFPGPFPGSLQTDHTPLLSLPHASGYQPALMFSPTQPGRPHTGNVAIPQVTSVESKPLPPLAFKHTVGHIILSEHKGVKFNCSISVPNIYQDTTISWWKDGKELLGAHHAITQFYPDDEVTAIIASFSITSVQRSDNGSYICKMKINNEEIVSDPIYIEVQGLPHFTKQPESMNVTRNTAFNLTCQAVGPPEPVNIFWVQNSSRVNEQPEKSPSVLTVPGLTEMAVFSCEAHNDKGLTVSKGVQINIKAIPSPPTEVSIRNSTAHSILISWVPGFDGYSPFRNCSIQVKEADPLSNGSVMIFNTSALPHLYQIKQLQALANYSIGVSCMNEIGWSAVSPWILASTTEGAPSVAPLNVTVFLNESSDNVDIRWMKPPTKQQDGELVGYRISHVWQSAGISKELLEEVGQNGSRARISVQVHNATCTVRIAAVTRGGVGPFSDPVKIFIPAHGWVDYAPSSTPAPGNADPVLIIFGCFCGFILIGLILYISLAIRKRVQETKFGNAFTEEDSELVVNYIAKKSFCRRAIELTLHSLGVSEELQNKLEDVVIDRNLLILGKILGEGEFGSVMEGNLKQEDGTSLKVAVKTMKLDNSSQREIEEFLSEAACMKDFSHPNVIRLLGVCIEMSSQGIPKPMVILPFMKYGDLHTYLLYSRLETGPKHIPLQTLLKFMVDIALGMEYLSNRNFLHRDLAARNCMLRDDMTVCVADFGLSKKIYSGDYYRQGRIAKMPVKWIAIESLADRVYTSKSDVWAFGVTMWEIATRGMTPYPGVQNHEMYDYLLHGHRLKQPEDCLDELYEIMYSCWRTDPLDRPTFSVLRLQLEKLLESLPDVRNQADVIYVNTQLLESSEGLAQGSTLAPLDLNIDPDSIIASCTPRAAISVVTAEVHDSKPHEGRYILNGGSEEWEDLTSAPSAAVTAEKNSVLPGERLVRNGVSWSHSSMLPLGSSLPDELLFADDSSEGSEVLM

FGFR3 = FGFR3 (UniProt P22607); test: as above
Fer (mouse) = test: as above
c-Abl (mouse) = test: as above
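For SH2 binding enrichment of the phosphorylated peptide, bacterial display in this document: peptide library displayed on the E. coli surface as eCPX fusions, selected cells deep-sequenced, score is each peptide's frequency after selection divided by its frequency in the input.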
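For phosphorylation enrichment, bacterial display in this document: 11-residue human phosphosite peptides and single-mutation variants displayed on the E. coli surface, counted by deep sequencing, each peptide's frequency after selection divided by its frequency in the unselected input library; frequency after pTyr selection over input frequency; kinase dosed for 20-30% of maximal phosphorylation in three min.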

Grb2 SH2, sequence (P62993 whole entry, looked up): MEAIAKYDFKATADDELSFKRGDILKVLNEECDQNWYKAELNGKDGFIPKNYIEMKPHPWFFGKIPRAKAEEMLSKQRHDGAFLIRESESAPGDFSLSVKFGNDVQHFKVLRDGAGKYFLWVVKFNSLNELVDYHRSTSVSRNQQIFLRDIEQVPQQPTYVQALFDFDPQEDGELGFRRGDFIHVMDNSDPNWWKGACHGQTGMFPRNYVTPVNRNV
EPHB1, sequence (P54762 whole entry, looked up): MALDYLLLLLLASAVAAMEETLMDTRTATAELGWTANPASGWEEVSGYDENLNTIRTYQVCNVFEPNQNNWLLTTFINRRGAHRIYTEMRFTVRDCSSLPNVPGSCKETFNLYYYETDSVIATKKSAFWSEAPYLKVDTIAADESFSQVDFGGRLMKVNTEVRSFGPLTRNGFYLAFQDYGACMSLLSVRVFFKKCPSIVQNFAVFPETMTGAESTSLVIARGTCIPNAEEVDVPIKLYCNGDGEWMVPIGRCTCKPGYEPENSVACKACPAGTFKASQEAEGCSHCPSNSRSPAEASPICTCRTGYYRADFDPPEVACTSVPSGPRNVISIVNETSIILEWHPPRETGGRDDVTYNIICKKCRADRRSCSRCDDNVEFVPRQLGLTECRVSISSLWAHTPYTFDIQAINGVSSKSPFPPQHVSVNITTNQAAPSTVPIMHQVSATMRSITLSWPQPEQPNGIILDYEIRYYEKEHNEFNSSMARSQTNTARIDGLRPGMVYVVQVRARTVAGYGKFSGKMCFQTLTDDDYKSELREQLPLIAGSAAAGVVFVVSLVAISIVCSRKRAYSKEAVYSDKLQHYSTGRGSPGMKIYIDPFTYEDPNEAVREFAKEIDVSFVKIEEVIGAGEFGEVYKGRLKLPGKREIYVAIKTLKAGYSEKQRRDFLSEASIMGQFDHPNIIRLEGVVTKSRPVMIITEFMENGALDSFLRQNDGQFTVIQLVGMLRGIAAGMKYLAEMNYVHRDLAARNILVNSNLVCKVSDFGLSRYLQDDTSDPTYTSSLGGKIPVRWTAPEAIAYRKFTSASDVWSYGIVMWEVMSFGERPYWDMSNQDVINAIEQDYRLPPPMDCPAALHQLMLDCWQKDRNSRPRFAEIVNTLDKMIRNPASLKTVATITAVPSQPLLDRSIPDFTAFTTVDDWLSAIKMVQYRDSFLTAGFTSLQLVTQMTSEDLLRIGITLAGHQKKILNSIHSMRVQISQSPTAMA

Sequence | SH2 binding enrichment (c-Src SH2) | SH2 binding enrichment (Grb2 SH2) | SH2 binding enrichment (SHP2-C SH2) | phosphorylation enrichment (EPHB1) | phosphorylation enrichment (Fyn) | phosphorylation enrichment (FGFR1) | phosphorylation enrichment (AncSZ) | phosphorylation enrichment (c-Src) | phosphorylation enrichment (Jak2) | phosphorylation enrichment (Hck) | phosphorylation enrichment (EPHB2) | phosphorylation enrichment (Fes) | phosphorylation enrichment (MERTK) | phosphorylation enrichment (FGFR3) | phosphorylation enrichment (Fer (mouse)) | phosphorylation enrichment (c-Abl (mouse))
FITVGYVDDTQ [HLA-B_Y51_S48T] | 0.736 | 0.779 | 1.1 | 0.681 | 0.529 | 0.658 | 0.999 | 0.432 | 0.877 | 0.517 | 0.611 | 1.21 | 0.482 | 0.741 | 0.528 | 0.898
GPCKAYELSQR [SETX_Y1297_R1294C] | 0.634 | 0.775 | 0.958 | 0.416 | 0.533 | 0.547 | 0.735 | 0.546 | 0.66 | 0.467 | 0.63 | 0.969 | 0.451 | 0.547 | 0.496 | 0.664
APSHAYHRGVL [ANO1_Y981_G983R] | 0.679 | 0.988 | 0.899 | 0.363 | 0.424 | 0.395 | 0.507 | 0.426 | 0.534 | 0.385 | 0.355 | 0.583 | 0.38 | 0.472 | 0.411 | 0.51
FHKALYTVRTY [PDE6C_Y266_S270T] | 0.481 | 0.768 | 0.725 | 0.774 | 0.599 | 0.655 | 0.964 | 0.596 | 1.16 | 0.725 | 0.645 | 1.26 | 0.519 | 0.774 | 0.542 | 0.964
ASTDYYKRGDF [PDHA1_Y243] | 0.44 | 0.767 | 0.753 | 0.287 | 0.368 | 0.436 | 0.685 | 0.5 | 0.754 | 0.465 | 0.409 | 0.71 | 0.369 | 0.501 | 0.321 | 0.559
SVETPYGSVTF [NDRG2_Y47] | 0.427 | 0.809 | 0.527 | 0.501 | 5.93 | 0.397 | 0.82 | 4.56 | 0.606 | 2.16 | 0.438 | 0.928 | 0.52 | 0.53 | 5.24 | 0.635
REGDKYVSHGA [ASS1_Y113_A111D] | 0.407 | 0.623 | 1.01 | 0.794 | 0.505 | 0.731 | 0.938 | 0.643 | 0.83 | 0.61 | 0.622 | 1.03 | 0.744 | 0.58 | 0.486 | 0.873
CPYNLYAAQLS [HGD_Y40_E42A] | 0.603 | 0.895 | 0.672 | 4.48 | 3.15 | 0.815 | 1.28 | 6.42 | 0.917 | 3.08 | 4.3 | 1.13 | 5.62 | 0.939 | 3.49 | 0.857
LVMFIYAIFGM [SCN1A_Y1684] | 1.2 | 2.09 | 1.8 | 1.03 | 1.21 | 0.952 | 1.49 | 1.99 | 1.94 | 0.777 | 1.03 | 1.88 | 1.13 | 1.41 | 1.19 | 1.55
PTTKSYFPHFD [HBA1_Y43_T42S] | 0.593 | 1.08 | 0.812 | 0.746 | 0.431 | 1.38 | 1.13 | 0.498 | 0.558 | 0.752 | 0.442 | 1.42 | 0.664 | 0.77 | 0.497 | 0.501
METKGYQSLPE [NR3C2_Y6_H7Q] | 0.841 | 0.728 | 0.557 | 0.495 | 0.421 | 0.449 | 0.682 | 0.326 | 0.77 | 0.423 | 0.449 | 0.825 | 0.361 | 0.568 | 0.448 | 0.683
IVEFAYNDKAV [PUM3_Y259_I264V_YF] | 0.414 | 0.85 | 0.787 | 0.561 | 0.52 | 0.59 | 1.09 | 0.547 | 0.968 | 0.573 | 0.632 | 0.938 | 0.527 | 0.767 | 0.462 | 0.705
PYTDPYYDYEI [ZC3H18_Y371_A368T] | 2.66 | 1.13 | 0.591 | 2.99 | 4.83 | 18.9 | 3.74 | 6.46 | 1.88 | 2.43 | 3.3 | 1.97 | 3.26 | 14.7 | 4.55 | 1.59
KKHIPYRQHKS [CSNK1G2_Y206_E208Q] | 1.79 | 2.07 | 1.84 | 2.12 | 1.08 | 1.28 | 2.09 | 1.34 | 4.52 | 1.56 | 1.36 | 3.45 | 1.07 | 3.67 | 2.37 | 3.26
YRDALYKSMVD [PHEX_Y250_F252S] | 0.457 | 0.804 | 0.666 | 0.564 | 0.495 | 0.458 | 0.757 | 0.449 | 0.717 | 0.525 | 0.805 | 0.856 | 0.4 | 0.608 | 0.421 | 0.592
FRIGPYQPNVP [MATR3_Y784_YF] | 0.634 | 0.844 | 0.754 | 0.477 | 0.45 | 0.538 | 0.773 | 0.506 | 0.78 | 0.484 | 0.514 | 0.966 | 0.532 | 0.736 | 0.446 | 0.631
KIDAKYKKKIK [WDR19_Y1230_E1235K] | 0.657 | 0.597 | 0.906 | 0.38 | 0.305 | 0.376 | 0.553 | 0.484 | 0.755 | 0.398 | 0.319 | 0.809 | 0.368 | 0.834 | 0.447 | 0.8

Sequence | SH2 binding enrichment (c-Src SH2) | SH2 binding enrichment (Grb2 SH2) | SH2 binding enrichment (SHP2-C SH2) | phosphorylation enrichment (EPHB1) | phosphorylation enrichment (Fyn) | phosphorylation enrichment (FGFR1) | phosphorylation enrichment (AncSZ) | phosphorylation enrichment (c-Src) | phosphorylation enrichment (Jak2) | phosphorylation enrichment (Hck) | phosphorylation enrichment (EPHB2) | phosphorylation enrichment (Fes) | phosphorylation enrichment (MERTK) | phosphorylation enrichment (FGFR3) | phosphorylation enrichment (Fer (mouse)) | phosphorylation enrichment (c-Abl (mouse))
VPLATYMQIFK [RPL21_Y30_R32Q_YF] | 0.866 | 0.859 | 0.682 | 1.83 | 0.887 | 0.471 | 0.745 | 1.54 | 0.836 | 1.8 | 0.648 | 0.654 | 0.613 | 0.54 | 0.308 | 0.361
PHMQTYEVDHN [SDHB_Y61_L65H] | 0.591 | 1.09 | 0.604 | 0.758 | 1.03 | 0.676 | 1.31 | 1.04 | 0.94 | 0.506 | 3.83 | 1.01 | 0.425 | 0.783 | 0.571 | 0.864
ESDFTYSSSFE [SRPK2_Y427_YF] | 0.572 | 0.735 | 0.747 | 0.531 | 0.821 | 0.53 | 1.03 | 1.08 | 1.02 | 0.752 | 0.537 | 1.09 | 0.438 | 0.723 | 0.536 | 0.614
VPEANYTSDEE [STK33_Y439_D436E] | 0.46 | 0.831 | 0.579 | 0.897 | 0.665 | 0.607 | 1.42 | 0.614 | 1.99 | 0.576 | 0.691 | 1.52 | 0.699 | 0.947 | 0.721 | 1.17
SSTAMYSAPGR [PSMB1_Y8] | 1.08 | 0.774 | 0.557 | 0.497 | 0.484 | 0.45 | 0.75 | 0.631 | 0.58 | 2.28 | 0.674 | 0.524 | 1.66 | 0.464 | 0.857 | 6.02
LEAVSYSSRFA [RNLS_Y190_YF] | 0.486 | 0.777 | 0.793 | 0.369 | 0.474 | 0.432 | 0.718 | 0.435 | 0.564 | 0.463 | 0.359 | 0.773 | 0.399 | 0.496 | 0.408 | 0.596
ELETLYKKAVK [CC2D2A_Y381] | 0.458 | 0.809 | 0.589 | 0.526 | 0.366 | 0.485 | 0.702 | 0.323 | 0.684 | 0.554 | 0.47 | 0.896 | 0.416 | 0.731 | 0.37 | 0.517
FADIAYNYRHA [PAH_Y166_G171A] | 0.549 | 0.852 | 0.681 | 0.593 | 0.425 | 0.322 | 0.578 | 0.503 | 0.648 | 0.415 | 0.437 | 0.779 | 0.466 | 0.542 | 0.424 | 0.474
LRVGFYESDVM [A2M_Y708] | 4.14 | 0.934 | 1.02 | 1.86 | 1.28 | 1.39 | 2.97 | 1.33 | 2.04 | 0.996 | 0.934 | 3.12 | 2.61 | 2.89 | 1.62 | 1.9
VKPENYRRLDV [VHL_Y175_I180V] | 0.465 | 0.778 | 0.635 | 0.561 | 0.461 | 0.429 | 0.532 | 0.372 | 0.463 | 0.387 | 0.386 | 0.593 | 0.465 | 0.506 | 0.334 | 0.814
HVIKLFGACSQ [RET_Y791_Y791F] | 0.667 | 0.938 | 0.979 | 1.01 | 0.816 | 0.709 | 1.52 | 0.519 | 0.994 | 0.855 | 0.995 | 1.75 | 0.719 | 1.26 | 0.763 | 1.1
GFEVVYVTEPI [HSP90AB1_Y512_M513V] | 0.495 | 0.802 | 0.454 | 0.344 | 0.424 | 0.443 | 1.1 | 0.591 | 0.983 | 0.549 | 0.465 | 0.959 | 0.386 | 0.605 | 0.444 | 0.641
FNNPAYYVLEG [INPPL1_Y986] | 3.95 | 0.992 | 1.12 | 0.851 | 1.75 | 12.1 | 1.2 | 2.06 | 4.76 | 1.11 | 0.704 | 0.958 | 7.95 | 9.49 | 0.485 | 0.767
SHMVNYQPFRK [TEX37_Y25_D24N_YF] | 0.613 | 0.766 | 0.732 | 0.376 | 0.37 | 0.347 | 0.528 | 0.492 | 0.573 | 0.405 | 0.371 | 0.534 | 0.358 | 0.364 | 0.355 | 0.504
VGIMLYGVDSR [PKD1_Y3143] | 0.489 | 0.888 | 0.63 | 0.575 | 0.572 | 0.592 | 1.12 | 0.435 | 1.05 | 0.61 | 0.626 | 1.19 | 0.383 | 0.792 | 0.634 | 0.77
RAVLLYEFVGK [NATD1_Y45_YF] | 0.972 | 1.57 | 1.5 | 23.8 | 5.5 | 2.12 | 2.71 | 5.67 | 1.56 | 8.33 | 27.1 | 3.12 | 12.7 | 2.29 | 14.9 | 1.54

From the supplement of paper PMC10065799, “High-throughput profiling of sequence recognition by tyrosine kinases and SH2 domains using bacterial peptide display” (eLife, 2023)
